Target: the molecule itself
Assay: kinetics of calcein release from lipid vesicles; peptide self-association within the membrane

Protein | binding result
VTIFVAGVLTASLTIWLLMG (K189/K190 replaced by LL; also called CT20 Bax LL; CT20-LL) [Bax C-terminal 20-residue peptide, lysines replaced with leucines (charge neutralization mutant)] | binds
VTIFVAGVLTASLTIWEEMG (K189/K190 replaced by EE; also called CT20 Bax EE; CT20-EE) [Bax C-terminal 20-residue peptide, lysines replaced with glutamates (charge reversal mutant)] | binds
Ac-VTIFVAGVLTASLTIWKKMG-NH2 (Synthetic peptide of the last 20 amino acids of Bax; also called CT20 Bax WT; CT20 peptide) [Bax C-terminal 20-residue peptide (CT20p), wild type] | binds

Source: patent US20140255299A1 (UNIVERSITY OF CENTRAL FLORIDA RESEARCH FOUNDATION, published 2014)
